Biological target: Xyloglucanase TpXEG12a from Talaromyces pinophilus (Talaromyces pinophilus)
Experiment: SEC; gel filtration on Superdex 75 Increase, 20 mM Tris-HCl, 150 mM NaCl, pH 7.5; calibrated with molecular mass standards

Xyloglucanase TpXEG12a from Talaromyces pinophilus (enzyme)
stoichiometry N: 2
